Experimental data published in US20220127354A1 (Amgen, published 2022).
Changes are numbered by the printed parent chain. Names may count otherwise. Blank lines part the entries; values can stand above or below the binder they belong to.

Experiments:
[1] = target: T1, muCDH19(44-247)::huCDH19(250-364)::muCDH19(363-770) with Flag tag (construct F, Hu EC3) (human/mouse chimera); assay: flow cytometry, transfected 293T cells
T1 construct: leader left out; the entry starts at residue 44; also called C137911
Source text: (§1) The experiment included assaying the anti-CDH19 antibodies against mouse Cadherin19 to determine suitability for binning on these human/mouse chimeras.

[2] = target: T2, muCDH19(44-139)::huCDH19(142-364)::muCDH19(363-770) with Flag tag (construct E, Hu EC2-3) (human/mouse chimera); assay: flow cytometry, transfected 293T cells
T2 construct: leader left out; the entry starts at residue 44; also called C137847
Source text: as §1

[3] = target: T3, muCDH19(44-770) with Flag tag (construct I, Mu EC1-5) (mouse); assay: flow cytometry, transfected 293T cells, 2 mM CaCl2
T3 construct: leader left out; the entry starts at residue 44; also called Mo EC1-5; mouse Cadherin19
T3 chain: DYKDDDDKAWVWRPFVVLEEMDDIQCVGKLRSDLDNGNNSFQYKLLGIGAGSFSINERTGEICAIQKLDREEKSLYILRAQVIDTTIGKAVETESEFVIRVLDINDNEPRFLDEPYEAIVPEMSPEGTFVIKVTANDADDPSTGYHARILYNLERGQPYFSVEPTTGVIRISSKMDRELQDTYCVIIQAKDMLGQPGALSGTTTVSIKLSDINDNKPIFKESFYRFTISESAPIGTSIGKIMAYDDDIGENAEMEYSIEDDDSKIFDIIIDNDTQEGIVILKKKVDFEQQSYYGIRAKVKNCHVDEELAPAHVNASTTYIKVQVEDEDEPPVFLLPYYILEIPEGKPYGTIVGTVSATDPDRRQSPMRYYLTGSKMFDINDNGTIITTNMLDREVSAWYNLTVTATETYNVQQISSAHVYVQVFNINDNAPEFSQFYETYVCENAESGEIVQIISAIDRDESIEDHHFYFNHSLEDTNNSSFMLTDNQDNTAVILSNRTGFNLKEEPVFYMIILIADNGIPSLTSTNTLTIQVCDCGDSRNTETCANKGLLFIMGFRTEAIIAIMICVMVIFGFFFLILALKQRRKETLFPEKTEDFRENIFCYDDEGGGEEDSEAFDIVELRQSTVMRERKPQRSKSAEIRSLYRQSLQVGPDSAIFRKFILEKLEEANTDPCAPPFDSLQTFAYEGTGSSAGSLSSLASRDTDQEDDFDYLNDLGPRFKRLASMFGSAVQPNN
Procedure: (§2) The following binding assay was completed in presence of 2 mM CaCl₂). […] Cells were then washed one time and the amount of cell associated Alexa647-labelled Ab was quantitated by flow cytometry. The experiments included mock transfected controls.

[4] = target: T4, muCDH19(44-323)::raCDH19(324-327)::muCDH19(328-770) with leader and FLAG (construct X) (rat/mouse chimera); assay: flow cytometry, transfected 293T cells, 2 mM CaCl2
T4 construct: leader (1-43 of the entry) left out
T4 chain: T3 chain with Q289H, S291N, Y292H
Procedure: as §2

[5] = target: T5, rhCDH19(1-43)::FLAG::rhCDH19(44-141)::raCDH19(140-247)::rhCDH19(250-772) (construct V, ra EC2) (rhesus macaque/rat chimera, UniProt Q9H159 44-772 (human entry)); assay: flow cytometry, transfected 293T cells, 2 mM CaCl2;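 also: antibody binding read out as cell-bound Alexa647 label signal, with mock-transfected cells as controls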
T5 construct: leader (1-43 of the entry) left out
T5 chain: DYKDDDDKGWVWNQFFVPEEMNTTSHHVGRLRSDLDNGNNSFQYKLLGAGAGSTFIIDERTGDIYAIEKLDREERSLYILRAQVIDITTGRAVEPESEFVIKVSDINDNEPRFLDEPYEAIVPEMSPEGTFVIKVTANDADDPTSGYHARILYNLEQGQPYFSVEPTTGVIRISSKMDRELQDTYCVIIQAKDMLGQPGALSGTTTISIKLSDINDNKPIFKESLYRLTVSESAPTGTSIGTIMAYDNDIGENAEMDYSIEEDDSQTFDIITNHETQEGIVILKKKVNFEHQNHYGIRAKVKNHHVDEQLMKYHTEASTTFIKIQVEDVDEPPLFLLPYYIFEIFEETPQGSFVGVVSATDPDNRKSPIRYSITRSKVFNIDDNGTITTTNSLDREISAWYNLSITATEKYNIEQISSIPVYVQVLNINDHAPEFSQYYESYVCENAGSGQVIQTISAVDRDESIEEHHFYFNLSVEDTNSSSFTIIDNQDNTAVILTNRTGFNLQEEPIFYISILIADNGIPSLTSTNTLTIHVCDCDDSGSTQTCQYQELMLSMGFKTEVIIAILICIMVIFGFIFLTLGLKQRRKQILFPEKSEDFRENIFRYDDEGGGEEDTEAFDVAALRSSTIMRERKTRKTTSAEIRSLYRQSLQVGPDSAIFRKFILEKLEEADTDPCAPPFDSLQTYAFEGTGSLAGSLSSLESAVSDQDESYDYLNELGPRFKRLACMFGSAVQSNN
Procedure: as §2

B1: hu anti-<huCDH19> 4B10 (Ab ID 13590) (antibody, V domains shown)
VH: QVQLVESGGGVVQPGRSLRLSCAASGFTFSSYDMHWVRQAPGKGLEWVAVISYDGTNEYYADSVKGRFTISRDTSKNTLYLQMNSLRAEDTAVYYCARERYFDWSFDYWGQGTLVSVSS
VL: EIVLTQSPGTLSLSPGERATLSCRASQSVSNTYLAWYHQRPGQAPRLLIYGASSRATGIPDRFSGSGSGTDFALTISSLEPEDFAVYYCQQYSNSWTFGQGTKVEIKR
notes: huIgG1z / huKLC; Bin 4
binding result [1]: binds
binding result [2]: binds
binding result [3]: no binding (tested: 5 ug/ml)
binding result [4]: binds

B5: anti-CDH19 antibody 2G6 (Ab ID 13588) (antibody, human IgG1, lambda, V domains shown)
VH: QVQLVESGGGVVQPGRSLRLSCAASGFTFSSYGMHWVRQAPGKGLEWVAFIWYDGSNKYYADSVKDRFTISRDNSKNTLYLQMKSLRAEDTAVYYCARRAGIIGTIGYYYGMDVWGQGTTVTVSS
VL: SYELTQPPSVSVSPGQTASITCSGDRLGEKYTCWYQQRPGQSPLLVIYQDTKRPSGIPERFSGSNSGNTATLTISGTQAMDEADYYCQAWDSSTVVFGGGTKLTVLG
notes: Bin 4
binding result [1]: binds
binding result [2]: binds
binding result [4]: binds

B6: hu anti-<huCDH19> 23A10.3 (1-474)(L92Q) VH::huIgG1z + 23A10.3 (1-231)(C42S) VL::huLLC-C2 (Ab ID 14077) (antibody, V domains shown)
VH: B5 VH with S31R, M34I, F50V, D66G, K84N, T91S, I103P, I106T
VL: B5 VL with T32V, C33S, R38K, L44I, T51N, R53W
notes: Engineered variant of 23A10; the entries already carry the changes; Bin 4
binding result [3]: binds

Continued, values first:

binding result [3]: no binding (tested: 5 ug/ml)
binding result [5]: no binding (tested: 5 ug/ml)
B2: hu anti-<huCDH19> 26D1.1 (Ab ID 13882) (antibody, human IgG1, lambda, V domains shown)
VH: QVQLVQSGAEVKKPGASVKVSCKASRYTFTSYYMSWVRQAPGQGLEWMGIIHPSGGDTTYAQKFQGRVTMTGDTSTSTVYMELSSLRSEDTAVYYCARGGIKLWLHFDYWGQGTLVTVSS
VL: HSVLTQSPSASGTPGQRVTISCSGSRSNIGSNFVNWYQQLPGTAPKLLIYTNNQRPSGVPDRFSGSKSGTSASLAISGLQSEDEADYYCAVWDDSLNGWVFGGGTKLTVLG
notes: huIgG1z / huLLC-C2; Bin 2

binding result [5]: no binding (tested: 5 ug/ml)
B3: hu anti-<huCDH19> 25F8.1 (1-469)(F90Y) VH::huIgG1z + 25F8.1 (1-235)(K45Q,S102A,D111E) VL::huLLC-C2 (Ab ID 14096) (antibody, V domains shown)
VH: B2 VH with R26G, M34I, S35H, H52N, D57S, T59R, G72R, K102Q
VL: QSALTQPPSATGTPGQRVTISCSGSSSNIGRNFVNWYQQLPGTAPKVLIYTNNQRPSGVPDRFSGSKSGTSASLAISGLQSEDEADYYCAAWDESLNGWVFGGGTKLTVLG
notes: Engineered variant of 25F8; the entries already carry the changes; Bin 2

binding result [3]: no binding (tested: 5 ug/ml)
binding result [5]: no binding (tested: 5 ug/ml)
B4: hu anti-<huCDH19> 4A9 (Ab ID 13589) (antibody, human IgG1, lambda, V domains shown)
VH: QVQLQESGPGLVKPSETLSLTCTVSGGSISGYYWSWIRQPPGKGLEWFAYFSYSGSTNYNPSLKSRVTLSVDTSKNQFSLKLSSVTAADTAVYYCARNWAFHFDFWGQGTLVTVSS
VL: QSVLTQPPSVSGAPGQRVTISCTGSSSNIGTGYAVHWYQQFPGTAPKLLIYGNNNRPSGVPDRFSGSKSGTSASLAITGLQAEDEADYYCQSYDSRLSGWVFGGGTKLTVLG
notes: huIgG1z / huLLC-C1; Bin 1
